Assays:
[1] = target: core-fucosylated RNase B (21) (bovine) (UniProt P61823); experiment: ELISA
[2] = target: S2G2F-rituximab (30), core-fucosylated sialyl complex type glycoform of rituximab (human); experiment: ELISA

Sequence of UniProt P61823 (P61823 27-150): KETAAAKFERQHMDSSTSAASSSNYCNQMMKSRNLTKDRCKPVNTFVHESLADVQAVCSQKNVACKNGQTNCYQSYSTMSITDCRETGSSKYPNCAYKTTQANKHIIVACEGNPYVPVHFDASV

In the case of “Aleuria aurantia lectin (AAL) (from UniProt P18891 1-313) (natural protein)”, the EC50 [1] is reported as 275 µM.

B1: Aleuria aurantia lectin (AAL) (natural protein)
chain: MPTEFLYTSKIAAISWAATGGRQQRVYFQDLNGKIREAQRGGDNPWTGGSSQNVIGEAKLFSPLAAVTWKSAQGIQIRVYCVNKDNILSEFVYDGSKWITGQLGSVGVKVGSNSKLAALQWGGSESAPPNIRVYYQKSNGSGSSIHEYVWSGKWTAGASFGSTVPGTGIGATAIGPGRLRIYYQATDNKIREHCWDSNSWYVGGFSASASAGVSIAAISWGSTPNIRVYWQKGREELYEAAYGGSWNTPGQIKDASRPTPSLPDTFIAANSSGNIDISVFFQASGVSLQQWQWISGKGWSIGAVVPTGTPAGW
modifications: biotin (AAL-biotin)
Molecule B1 has an EC50 [2] of 15 µM.
